# According to USRE46585 (LABORATOIRE FRANCAIS DU FRACTIONNEMENT ET DES …, dated 2017):
# Tests used:
# FcRn-p3 fusion protein [1] = molecular target: T1, FcRn-p3 fusion protein (human, UniProt P55899 24-297; P61769 21-119); assay: phage ELISA pH6 (est.)
# T1 construct: baculovirus expressed; coated on ELISA wells; not shown: amino terminal part of bacteriophage p3 protein and CVDE protein
# FcRn-p3 fusion protein [2] = molecular target: T1, FcRn-p3 fusion protein; assay: phage ELISA pH6
Binder,Ratio/FWT (FcRn-p3 fusion protein [1]) [fold],Ratio/Fc-H (FcRn-p3 fusion protein [2]) [fold]
"T4A_46 (other, EU numbering) CPPCTAPELLGGPSVFLFPPKPKDTLMISRTPEVTCVVVDVSHEDPEVKFNWYVDGVEVHNAKTKPREEQYNSTYRVVSVLTVLHQDWLNGKEYKCKVSNKALPAPIEKTISKAKGQPREPQVYTLPPSRDELTKNQVSLTCLVKGFYPSDIAVEWESNGQPEKNYKTTPPVLDSDGSFFLYSKLTVDKSRWQQGNVFSCSVMHEALHYHYTQKSLSLSPGK",11.4,3.6
"T5A_05 (other, EU numbering) CPPCPAPELLGGPSVFLFPPKPKDTLMISRTPEVTCVVEDVSHGDPEVKFNWYVDGVEVHNAKTKPREEQYNSTYRVVSVLTVLHQDWLNGKEYKCKVSNKALPAPIEKTISKAKGQPREPQVYTLPPSRDELTKNQVSLTCLVKGFYPSDIVVEWESNGQPENNYKTTPPVLDSDGSFFLYSKLTVDKSRWQQGTVFSCSVMHEALHSHYTQKSLSLSPGK",8.8,2.7
"T5A_03 (other, EU numbering) CPPCPAPELLGGPSVFLFPPKPKDTLMISRTPEVTCVVEDVSHEDPEVKFNWYVDGVEVHNAKTKPREEQYNSTYRVVSVLTVLHQDWLNGKEYKCKVSNKALPAPIEKTISKAKGQPREPQVYTLPPSRDELTKNQVSLTCLVKGFYPSDIAVEWESNGQPENNYKTTPLVLDSDGSFFLYSKLTVDKSRWQQGNVFSCSVMHEALHSHYTQKSLSLSPGK",6.4,2

# More lines, now with the values ahead:
Ratio/FWT (FcRn-p3 fusion protein [1]) [fold],Ratio/Fc-H (FcRn-p3 fusion protein [2]) [fold],Binder
7.9,2.5,"T5A_28 (other, EU numbering) CPPCPAPELLGGPSVLLFPPKPKDTLMISRTPEVTCVVEDVSHEDPEVKFNWYVDGVEVHNAKTKPREEQYNSTYRVVSVLTVLHQDWLNGKEYKCKVSNKALPAPIEKTISKAKGQPREPQVYTLPPSRDELTKNQVSLTCLVKGFYPSDIVVEWESNGQPENNYKTTPPVLDSDGSFFLYSKLTVDKSRWQQGNVFSCSVMHEALHYHYTQKSLSLSPGK"
7,2.2,"T5A_37 (other, EU numbering) CPPCPAPELLGGPSVFLFPPKPKDTLMISRTPEVTCVVVDVSHEDPEVKFNWYVDGVEVHNAKTKPREEQYNGTYRVVSVLTVLHQDWLDGKEYKCKVSNKALPVPIEKTISKAKGQPREPQVYTLPPSRDELTKNQVSLTCLVKGFYPSDIAVEWESNGQPENNYKTTPPVLDSDGSFFLYSKLTVDKSRWQQGNVFSCSVMHEALHYHYTQKSLSLSPGK"
10.8,3.4,"T5A_40 (other, EU numbering) CPPCTAPELLGGPSVFLFPPKPKDTLMISRTPEVTCVVEDVSHEDPEVKFNWYVDGVEVHNAKTKPREEQYNSTYRVVSVLPVLHQDWLNGKEYKCKVSNKALPAPIEKTISKAKGQPREPQVYTLPPSRDELTKNQVSLTCLVKGFYPSDIVVEWESNGQPENNYKTTPPVLDSDGSFFLYSKLTVDKSRWQQGTVFSCSVMHEALHNHYTQKSLSLSPGK"
3.8,1.2,"T5A_44 (other, EU numbering) CPPCPAPELLGGPSVLLFPPKPKDTLMISRTPEVTCVVEDVSHEDPEVKFNWYVDGVEVHNAKTKPREEQYNSTYRVVSVLPVLHQDWLNGKEYKCKVSNKALPAPIEKTISKAKGQPREPQVYTLPPSRDELTKNQVSLTCLVKGFYPSDITVEWESNGQPENNYKTTPPMLDSDGSFFLYSKLTVDKSRWQQGNVFSCSVMHEALHNHYTQKSLSLSPGK"
6,1.9,"T5A_29 (other, EU numbering) CPPCPAPELLGGPSVFLFPPKPKDTLMISRTPEVTCVVVDVSHEDPEVKFNWYVDGVEVHNAKTKPREEQYNSTYRVVSVLTVLHQDWLDGKEYKCKVSNKALPAPIEKTISKAKGQPREPQVYTLPPSRDELTKNQVSLTCLVKGFYPSDIAVEWVSNGQPENNYKTTPPVLDSDGSFFLYSKLTVDKSRWQQGNVFSCSVMHEALHYHYTQKSLSLSPGK"
